Experimental data from patent US20230052369A1 (published 2023).
One block for each binder: values may come before it.

What was measured:
[1] = target: T1, purified human monomeric 4-1BB (UniProt Q07011 24-186); test: SPR; 25 °C, steady state affinity
[2] = target: T1, purified human monomeric 4-1BB; test: SPR; 25 °C

T1 sequence (Q07011 other isoform, or with tags, fused parts or gaps): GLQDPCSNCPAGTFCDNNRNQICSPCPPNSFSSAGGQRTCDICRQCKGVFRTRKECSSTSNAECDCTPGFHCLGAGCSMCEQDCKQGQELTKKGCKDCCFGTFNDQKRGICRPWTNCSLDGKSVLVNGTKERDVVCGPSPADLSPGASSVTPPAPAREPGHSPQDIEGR

- Kd [1]: 687 nM
B1: v28696 (antibody, V domains shown)
VH: QVQLQESGPGLVKPSETLSLTCTVSGFSLISYGVHWIRQPPGKGLEWIGVIWSGGSTDYNPSLKSRVTISVDTSKNQFSLKLSSVTAADTAVYYCARNPLTATVMDYWGQGTLVTVSS
VL: DIQMTQSPSSLSASVGDRVTITCRASQNVGTNVAWYQQKPGKAPKALIYSASYRDSGVPSRFSGSGSGTDFTLTISSLQPEDFATYYCQQYNSYPLTFGGGTKVEIKR

- Kd [2]: 256 nM
B2: v20036 (antibody, V domains shown)
VH: QVQLQESGPGLVQPTQSLSITCTVSGFSLISYGVHWVRQSPGKGLEWLGVIWSGGSTDYNAAFISRLSISKDNSKSQVFFKMNSLQADDTAIYYCARNPLTATVMDYWGQGTSVTVSS
VL: DIVMTQSQKFMSTSVGDRVSVTCKASQNVGTNVAWYQQKPGQSPKALIYSASYRDSGVPDRFTGSGSGTDFTLTISNVQSEDLAEYLCQQYNSYPLTFGAGTKLELKR
